The labels stand for the following.
T1: clathrin heavy chain N‐terminal domain (1‐363) (bovine, UniProt P49951 1-363)
T1 construct: also called NTD; clathrin NTD; source: E. coli BL21(DE3) pLysS, purified (glutathione Sepharose, thrombin cleavage, Superdex 200); not shown: GST, N-terminal, cleaved
T1 sequence (looked up): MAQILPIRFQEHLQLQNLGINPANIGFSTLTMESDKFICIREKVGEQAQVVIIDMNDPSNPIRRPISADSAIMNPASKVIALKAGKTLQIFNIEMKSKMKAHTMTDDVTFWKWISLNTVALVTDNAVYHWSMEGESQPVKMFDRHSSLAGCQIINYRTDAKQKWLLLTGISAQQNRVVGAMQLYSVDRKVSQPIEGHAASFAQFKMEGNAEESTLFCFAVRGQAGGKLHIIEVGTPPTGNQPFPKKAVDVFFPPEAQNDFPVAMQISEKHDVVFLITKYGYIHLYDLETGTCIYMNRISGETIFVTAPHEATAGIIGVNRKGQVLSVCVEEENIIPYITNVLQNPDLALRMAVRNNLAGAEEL

T2: GST‐Amph4T1 (rat, UniProt O08838 349-356)
T2 construct: also called extended amphiphysin CBM construct; source: E. coli BL21(DE3) pLysS, purified (glutathione resin, SEC)
T2 chain: ETLLDLDFLERPHRD

T3: GST‐AmphCBM (human, UniProt P49418 349-358)
T3 construct: also called human amphiphysin I CBM; source: E. coli BL21(DE3) pLysS, purified (glutathione resin, SEC); not shown: GST, N-terminal, kept
T3 chain (looked up): ETLLDLDFDP

T4: GST‐AP2CBM (human, UniProt P63010 629-640)
T4 construct: also called CBM from flexible hinge of β2 adaptin subunit of human AP2; source: E. coli BL21(DE3) pLysS, purified (glutathione resin, SEC); not shown: GST, N-terminal, kept
T4 chain (looked up): GDLLNLDLGPPV

T5: GST‐AP2arrS (human, UniProt P63010 623-632)
T5 construct: also called extended arrestin motif (LLGDLL); source: E. coli BL21(DE3) pLysS, purified (glutathione resin, SEC); not shown: GST, N-terminal, kept
T5 chain (looked up): SQGDLLGDLL

B1: HDAg‐L1pep (peptide)
peptide: SDILFPADS
notes: also called peptide of the putative CBM of HDAg-L1; source: synthetic peptide, bought: Designer Bioscience
B2: AmphCBMlongpep (peptide)
peptide: ETLLDLDFDPFK
notes: source: synthetic peptide, bought: Genscript
B3: Amph4T1pep (peptide)
peptide: ETLLDLDFLE
notes: as for B2
B4: HDAg‐L2pep (peptide)
peptide: SPRLPLLES
notes: also called peptide of the putative CBM of HDAg-L2; source: synthetic peptide, bought: Designer Bioscience
B5: AmphCBMpep (peptide)
peptide: ETLLDLDFDP
notes: also called peptide of the amphiphysin CBM; source: synthetic peptide, bought: Genscript
B6: AP2CBMpep (peptide)
peptide: CGDLLNLDLG
notes: also called peptide of the β2 adaptin CBM; source: synthetic peptide, bought: Designer Bioscience
B7: His‐NTD‐NEMO Q89A + F91K (other, UniProt P49951 1-363, looked up)
chain: MAQILPIRFQEHLQLQNLGINPANIGFSTLTMESDKFICIREKVGEQAQVVIIDMNDPSNPIRRPISADSAIMNPASKVIALKAGKTLAIKNIEMKSKMKAHTMTDDVTFWKWISLNTVALVTDNAVYHWSMEGESQPVKMFDRHSSLAGCQIINYRTDAKQKWLLLTGISAQQNRVVGAMQLYSVDRKVSQPIEGHAASFAQFKMEGNAEESTLFCFAVRGQAGGKLHIIEVGTPPTGNQPFPKKAVDVFFPPEAQNDFPVAMQISEKHDVVFLITKYGYIHLYDLETGTCIYMNRISGETIFVTAPHEATAGIIGVNRKGQVLSVCVEEENIIPYITNVLQNPDLALRMAVRNNLAGAEELKSSVVGSERKRGMQLEDLKQQLQQAEEALVAKQEVIDKLKEEAEQHKIVMETVPVLKAQADIYKADFQAERQAREKLAEKKELLQEQLEQLQREYSKLKASCQESARIEDMRKRHVEVSQ
notes: also called clathrin box mutant; not shown: His6, N-terminal, kept
B8: His‐NTD‐NEMO Q89A + F91K + Q192Y (other, UniProt P49951 1-363, looked up)
chain: B7 chain with Q192Y
notes: also called His‐NTD‐NEMO mutated at both the clathrin and arrestin boxes; not shown: His6, N-terminal, kept
B9: His‐NTD‐NEMO Q192Y (other, UniProt P49951 1-363, looked up)
chain: B7 chain with A89Q, K91F, Q192Y
notes: also called arrestin box mutant; not shown: His6, N-terminal, kept
B10: His‐NTD‐NEMO Q89A + F91K + F9W (other, UniProt P49951 1-363, looked up)
chain: B7 chain with F9W
notes: also called mutant with disrupted clathrin and Royle boxes; printed in the text as Q98A + F91K + F9W; not shown: His6, N-terminal, kept

Residue numbers refer to the chain shown, from its start. Names may count otherwise.

The target in the first assay is T1, clathrin heavy chain N‐terminal domain …. In words: crystal structure; co-crystals of NTD (14 or 20 mg/mL) with 3.4-3.6 mM peptide, sitting drop, 20°C, sodium malonate; peptide also in the cryoprotectant. Conditions: both partners purified.
B1: the binding result is reported as “binds”.

Consider B2, for which the binding result is “binds”. The same measure, in the same setting: to B3 belongs “binds”; to B4, “binds”; to B5, “binds”. As to B6, the binding result is on record as “binds”.

A further assay has as its target T2, GST‐Amph4T1. In words: pull-down; 500 µg GST or GST-peptide bait on glutathione sepharose 4B; 0.1 mg/mL wild-type or mutant His-NTD-NEMO as prey, 2 h, 4°C; 25 mM HEPES-KOH, 125 mM potassium acetate, 5 mM magnesium acetate, 2 mM EDTA, 2 mM EGTA, 1 mM DTT, pH 7.2; washes with PBS; immunoblot with anti-clathrin NTD antibody. The note with it: both partners purified. For orientation: A western blot detects proteins with antibodies after separation by electrophoresis.
For the molecule B7, the binding result is recorded as “binds”. For B8, the binding result is listed as “binds”. With B9, the binding result is given as “binds”.

In the case of B10, the binding result was “binds”.

The target of the next assay is T3, GST‐AmphCBM. Described as above. The note with it: both partners purified.
With B7, the binding result is recorded as “binds”. In the case of B8, the binding result was “binds”. On the same count and under the same terms, to B9 belongs “binds”.

Another assay deals with T4, GST‐AP2CBM. The description is as above. Conditions: both partners purified.
For the molecule B7, the binding result is given as “binds”. For B9, the binding result is reported as “binds”. On the same count and under the same terms, under B10 stands “binds”.

For the next assay, the target named is T5, GST‐AP2arrS. The assay is described as above. Conditions: both partners purified.
Take B10: the binding result is reported as “binds”.

Source of the values: article PMC5182127, “Cellular and viral peptides bind multiple sites on the N‐terminal domain of clathrin” (Traffic (Copenhagen, Denmark), 2016).
